Experiments:
[1] = biological target: T1, recombinant human integrin αvβ8 ectodomain (human, UniProt P06756 31-992; P26012 43-681); assay: cell-based or functional assay
[2] = biological target: T1, recombinant human integrin αvβ8 …; assay: cell-based or functional assay; remark: listed apart in the source
[3] = biological target: T1, recombinant human integrin αvβ8 …; assay: cell-based or functional assay; remark: listed apart in the source
[4] = biological target: integrin αvβ6 ectodomain (immobilized) (human, UniProt P06756 31-992; P18564 22-709); assay: cell-based or functional assay
integrin αvβ6 ectodomain (immobilized), sequence (P06756 31-992, chain 1 of 2): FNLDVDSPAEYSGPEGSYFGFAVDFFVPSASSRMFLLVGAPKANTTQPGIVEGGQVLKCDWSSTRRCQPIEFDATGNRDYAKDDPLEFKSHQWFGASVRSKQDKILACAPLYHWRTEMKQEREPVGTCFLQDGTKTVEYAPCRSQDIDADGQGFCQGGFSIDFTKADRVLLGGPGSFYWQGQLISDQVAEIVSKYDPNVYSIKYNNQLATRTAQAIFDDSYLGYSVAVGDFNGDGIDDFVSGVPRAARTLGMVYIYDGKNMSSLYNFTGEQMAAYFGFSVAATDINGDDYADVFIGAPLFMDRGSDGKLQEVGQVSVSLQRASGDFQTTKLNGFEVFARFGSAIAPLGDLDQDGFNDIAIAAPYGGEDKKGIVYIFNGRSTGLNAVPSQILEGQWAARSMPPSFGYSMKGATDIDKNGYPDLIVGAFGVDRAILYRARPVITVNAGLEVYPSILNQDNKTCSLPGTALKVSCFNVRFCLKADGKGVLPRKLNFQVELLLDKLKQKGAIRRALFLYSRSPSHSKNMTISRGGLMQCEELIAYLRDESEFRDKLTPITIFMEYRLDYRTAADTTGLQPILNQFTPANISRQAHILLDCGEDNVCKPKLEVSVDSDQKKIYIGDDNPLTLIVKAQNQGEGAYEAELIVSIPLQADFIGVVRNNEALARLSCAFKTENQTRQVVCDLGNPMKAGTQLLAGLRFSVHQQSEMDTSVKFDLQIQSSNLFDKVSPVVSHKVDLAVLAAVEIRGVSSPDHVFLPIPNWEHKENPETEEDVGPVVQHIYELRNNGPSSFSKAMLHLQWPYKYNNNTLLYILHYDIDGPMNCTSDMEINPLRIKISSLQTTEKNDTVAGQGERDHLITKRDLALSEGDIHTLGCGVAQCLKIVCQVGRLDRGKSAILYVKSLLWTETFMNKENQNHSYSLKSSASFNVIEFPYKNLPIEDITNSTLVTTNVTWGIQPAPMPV
integrin αvβ6 ectodomain (immobilized), sequence (P18564 22-709, chain 2 of 2): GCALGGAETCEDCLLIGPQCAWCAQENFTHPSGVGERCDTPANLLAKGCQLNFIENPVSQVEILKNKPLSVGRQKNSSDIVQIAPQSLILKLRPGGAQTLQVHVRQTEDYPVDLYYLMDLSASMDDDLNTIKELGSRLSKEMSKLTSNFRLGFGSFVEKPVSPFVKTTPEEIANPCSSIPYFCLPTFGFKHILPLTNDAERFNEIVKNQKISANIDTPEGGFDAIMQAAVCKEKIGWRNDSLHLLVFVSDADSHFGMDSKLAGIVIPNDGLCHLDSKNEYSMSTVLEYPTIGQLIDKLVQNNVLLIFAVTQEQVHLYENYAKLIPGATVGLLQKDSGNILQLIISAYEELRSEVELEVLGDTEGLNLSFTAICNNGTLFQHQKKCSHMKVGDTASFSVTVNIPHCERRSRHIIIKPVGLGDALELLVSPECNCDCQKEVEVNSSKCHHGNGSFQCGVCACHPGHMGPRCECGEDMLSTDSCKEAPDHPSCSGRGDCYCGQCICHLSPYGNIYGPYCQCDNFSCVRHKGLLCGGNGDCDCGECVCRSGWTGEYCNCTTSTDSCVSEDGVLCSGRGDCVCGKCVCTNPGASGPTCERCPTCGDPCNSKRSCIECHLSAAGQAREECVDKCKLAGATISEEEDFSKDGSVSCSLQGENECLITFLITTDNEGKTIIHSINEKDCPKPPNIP

[5] = biological target: T1, recombinant human integrin αvβ8 …; assay: cell-based or functional assay; remark: listed apart in the source
[6] = biological target: T2, integrin αvβ1 ectodomain (immobilized) (Homo sapiens (Human), UniProt P06756 31-992; P05556 21-728); assay: binding to immobilized integrin ectodomains blocked with BSA
T2 construct: R&D Systems; copies: 1 + 1
T2 sequence (P06756 31-992 limits assumed, chain 1 of 2): as the sequence (P06756 31-992, chain 1 of 2) above
T2 sequence (P05556 21-728 limits assumed, chain 2 of 2): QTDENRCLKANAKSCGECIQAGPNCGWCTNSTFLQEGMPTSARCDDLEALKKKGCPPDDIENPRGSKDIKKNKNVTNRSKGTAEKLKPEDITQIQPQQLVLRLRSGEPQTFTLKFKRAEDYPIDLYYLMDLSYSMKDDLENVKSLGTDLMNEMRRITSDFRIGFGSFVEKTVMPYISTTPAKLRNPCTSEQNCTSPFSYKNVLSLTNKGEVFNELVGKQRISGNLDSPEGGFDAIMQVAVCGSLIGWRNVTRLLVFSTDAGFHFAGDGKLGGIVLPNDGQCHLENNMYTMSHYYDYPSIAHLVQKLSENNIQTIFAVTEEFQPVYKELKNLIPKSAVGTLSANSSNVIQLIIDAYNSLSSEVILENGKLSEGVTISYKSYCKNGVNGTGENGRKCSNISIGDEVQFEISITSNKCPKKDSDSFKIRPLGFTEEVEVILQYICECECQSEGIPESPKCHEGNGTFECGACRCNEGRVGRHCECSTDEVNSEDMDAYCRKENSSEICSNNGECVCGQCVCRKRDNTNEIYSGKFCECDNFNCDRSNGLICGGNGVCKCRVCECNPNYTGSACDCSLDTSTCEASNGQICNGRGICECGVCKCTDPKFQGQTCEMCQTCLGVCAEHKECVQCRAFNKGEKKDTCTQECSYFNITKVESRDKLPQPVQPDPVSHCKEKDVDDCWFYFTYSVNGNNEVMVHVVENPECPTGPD

[7] = biological target: T3, integrin αvβ5 ectodomain (immobilized) (Homo sapiens (Human), UniProt P06756 31-992; P18084 24-719); assay: as above
T3 construct: R&D Systems; copies: 1 + 1
T3 sequence (P06756 31-992 limits assumed, chain 1 of 2): as the sequence (P06756 31-992, chain 1 of 2) above
T3 sequence (P18084 24-719 limits assumed, chain 2 of 2): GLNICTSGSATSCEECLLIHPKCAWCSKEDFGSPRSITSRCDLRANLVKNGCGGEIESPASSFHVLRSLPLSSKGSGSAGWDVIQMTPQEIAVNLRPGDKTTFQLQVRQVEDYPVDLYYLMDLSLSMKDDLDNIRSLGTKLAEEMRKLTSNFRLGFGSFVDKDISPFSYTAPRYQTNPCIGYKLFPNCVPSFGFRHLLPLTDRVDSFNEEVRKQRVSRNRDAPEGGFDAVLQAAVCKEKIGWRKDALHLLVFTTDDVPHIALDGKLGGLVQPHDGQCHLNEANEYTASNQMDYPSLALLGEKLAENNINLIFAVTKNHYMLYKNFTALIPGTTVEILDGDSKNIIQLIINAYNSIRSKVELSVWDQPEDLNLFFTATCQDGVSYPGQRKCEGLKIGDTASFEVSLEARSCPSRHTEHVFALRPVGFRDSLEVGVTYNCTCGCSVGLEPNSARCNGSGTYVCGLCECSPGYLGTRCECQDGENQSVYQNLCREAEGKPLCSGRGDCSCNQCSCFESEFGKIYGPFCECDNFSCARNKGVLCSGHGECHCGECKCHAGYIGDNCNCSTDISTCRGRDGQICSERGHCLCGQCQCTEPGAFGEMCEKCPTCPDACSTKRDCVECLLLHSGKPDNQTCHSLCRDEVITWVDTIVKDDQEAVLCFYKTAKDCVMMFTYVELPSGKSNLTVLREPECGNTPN

[8] = biological target: T1, recombinant human integrin αvβ8 …; assay: KinExA; antibody format and antigen form not stated
[9] = biological target: T4, integrin αvβ3 on HEK 293 cells stably expressing αvβ3 (Homo sapiens (Human), UniProt P06756 31-1048; P05106 27-788); assay: flow cytometry on HEK 293 cells stably expressing αvβ3
T4 construct: also called αvβ3 expressing 293 cells
Excerpt: A) Binding of anti-β3 (AP3) relative to F12 IgG4, H4C8 RGD1 IgG4,H4C8 RGD3 IgG4, H3C8 RGD3 with VL Fr4 V108/L109 (mouse) IgG4, H4C8 RGD3 IgG4, H3C8 RGD3 VL Fr4 K108/V109 (human) IgG4, H4C8 RGD1 VH Fr3 E72, H4C8 RGD3 VH Fr3 E72 IgG4. HEK 293 cells stably expressing αvβ3 were stained and the percentage of relative binding to the mean fluorescence intensity of AP3 is shown, B) Expi293 cells transiently expressing αvβ6 were stained and the percentage of relative binding to the mean fluorescence intensity of 3G9 is shown, C) HEK 293 cells stably expressing αvβ8 were stained and the percentage of relative binding to the mean fluorescence intensity of HuF12 is shown. All primary antibodies were used at 2.5 ug/ml. […] Binding or 3G9 is shown and percent binding of antibodies relative to 3G9 binding to αvβ6 is shown. Dotted line indicate binding observed with each positive control antibody,
RGD ligands bind promiscuously to a number of integrins. A highly desirable quality in RGD-mimetics is to retain specificity for some but not all integrins. One highly desirable property would be a dual inhibitor to both the αvβ8- and αvβ6-integrins, without cross-reactivity to other integrins. This property would facilitate specific targeting of integrin-mediated TGF-β activation without the liability of side-effects mediated by broadly blocking other integrins. We first measured binding to αvβ3 expressing 293 cells. Binding of anti-β3 (AP3) relative to F12 IgG4, H4C8 RGD1 IgG4,H4C8 RGD3 IgG4, H3C8 RGD3 with VL Fr4 V108/L109 (mouse) IgG4, H4C8 RGD3 IgG4, H3C8 RGD3 VI Fr4 K108/V109 (human) IgG4, H4C8 RGD1 Vh Fr3 E72, H4C8 RGD3 Vh Fr3 E72 IgG4. […] Expi293 cells transiently expressing αvβ6 were stained and the percentage of relative binding to the mean fluorescence intensity of anti-β6 (3G9) determined.

[10] = biological target: T2, integrin αvβ1 ectodomain (immobilized); assay: binding to immobilized ectodomains
[11] = biological target: T3, integrin αvβ5 ectodomain (immobilized); assay: binding to immobilized ectodomains

T1 sequence (P06756 31-992 limits assumed, chain 1 of 2): as the sequence (P06756 31-992, chain 1 of 2) above
T1 sequence (P26012 43-681 limits assumed, chain 2 of 2): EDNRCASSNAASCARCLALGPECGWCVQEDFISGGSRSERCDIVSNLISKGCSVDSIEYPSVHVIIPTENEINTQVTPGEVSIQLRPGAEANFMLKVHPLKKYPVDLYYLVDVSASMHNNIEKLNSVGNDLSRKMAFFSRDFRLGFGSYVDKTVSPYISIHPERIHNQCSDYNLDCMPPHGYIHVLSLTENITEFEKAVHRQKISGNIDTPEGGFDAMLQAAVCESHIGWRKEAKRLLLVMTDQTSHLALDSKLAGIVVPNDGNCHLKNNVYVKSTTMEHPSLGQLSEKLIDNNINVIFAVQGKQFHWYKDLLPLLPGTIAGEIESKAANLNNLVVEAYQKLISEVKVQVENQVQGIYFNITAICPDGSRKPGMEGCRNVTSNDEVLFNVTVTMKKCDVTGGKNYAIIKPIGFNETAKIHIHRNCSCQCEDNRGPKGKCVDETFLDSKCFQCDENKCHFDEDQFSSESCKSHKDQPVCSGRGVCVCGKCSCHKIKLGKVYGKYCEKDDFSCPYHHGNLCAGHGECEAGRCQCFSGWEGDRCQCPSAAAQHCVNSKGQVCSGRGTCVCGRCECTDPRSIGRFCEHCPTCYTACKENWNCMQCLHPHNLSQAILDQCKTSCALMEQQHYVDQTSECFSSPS

Binder	EC50 of inhibition of αvβ8-mediated TGF-β activation [1] [µM]	ED50 of the inhibition of αvβ8-mediated TGF-β activation (immobilized αvβ8, TMLC GARP/L-TGF-β reporter cells) [2] [µg/mL]	IC50 of the inhibition of TGF-β activation (TMLC GARP/TGF-β1 reporter cells on αvβ8-coated wells) [3] [µg/mL]	ED50 of the inhibition of αvβ6-mediated TGF-β activation (immobilized human αvβ6, TMLC GARP/L-TGF-β reporter cells) [4] [µg/mL]	ED50 of the inhibition of αvβ8-mediated TGF-β activation (immobilized human αvβ8, TMLC GARP/L-TGF-β reporter cells) [5] [µg/mL]	binding result [6]	binding result [7]	binding result [9]	other results
HuC6D4 IgG2a (antibody, V domains shown) VH: QIQLVQSGAEVKKPGASVKISCKASGYTFTDYSMHWVRQAPGQGLEWVARINTETGEPTFADDFRGRFTVTLDTSTSTAYLEIRSLRSDDTAVYFCAIFYYGRDTWGQGTTLTVSS VL: EIVMTQSPATLSVSPGERVTMSCKSSQSLLNSRSRKNYLAWYQQKPGQAPRLLIYWASTRESGVPARFSGSGSGTEFTLTISSVQSEDFAVYYCKQSYNLLSFGQGTVLEIKR	0.23	0.23	3.1	–	–	–	–	–	–
HuC6D4 RGD3, mouse IgG2a (antibody, V domains shown, Mouse IgG2a) VH: QIQLVQSGAEVKKPGASVKISCKASGYTFTDYSMHWVRQAPGQGLEWVARINTETGEPTFADDFRGRFTVTLDTSTSTAYLEIRSLRSDDTAVYFCAIFYYGRDTWGQGTTLTVSS VL: EIVMTQSPATLSVSPGERVTMSCKSSQSLLGRGDLGRLKKNALAWYQQKPGQAPRLLIYWASTRESGVPARFSGSGSGTEFTLTISSVQSEDFAVYYCKQSYNLLSFGQGTVLEIKR	–	–	–	1.54	3.3	no binding	no binding	–	–
H4C8m (H4C8 with non-humanized, murine VL Fr4), human IgG4 (antibody, V domains shown) VH: QVQLVQSGAEVKKPGASVKVSCKVSGYTLTRQSMHWVRQAPGKGLEWMGRINTETGEPTYAQKFQGRVTMTQDTSTDTAYMELSSLRSEDTAVYFCAIFYYGRDTWGQGTTVTVSS VL: EIVMTQSPATLSVSPGERVTLSCRSSQSLLHSRSRKNYLAWYQQKPGQAPRLLIYWASTRETGVPARFSGSGSGTEFTLTISSLQSEDFAVYYCKQSYNLLSFGQGTVLEIKR	0.3	0.03	–	–	–	–	–	–	–
huC6D4 VH with huF12 VL, murine IgG2a (antibody, V domains shown) VH: QIQLVQSGAEVKKPGASVKISCKASGYTFTDYSMHWVRQAPGQGLEWVARINTETGEPTFADDFRGRFTVTLDTSTSTAYLEIRSLRSDDTAVYFCAIFYYGRDTWGQGTTLTVSS VL: EIVMTQSPATLSVSPGERVTMSCKSSQSLLHSRSRKNYLAWYQQKPGQAPRLLIYWASTRESGVPARFSGSGSGTEFTLTISSVQSEDFAVYYCKQSYNLLSFGQGTVLEIKR	–	–	1.15	–	–	–	–	–	–
huF12 VH with huC6D4 VL, murine IgG2a (antibody, V domains shown) VH: QIQLVQSGAEVKKPGASVKISCKASGYTFTKYSMHWVRQAPGQGLEWVARINTETGEPTFADDFRGRFTVTLDTSTSTAYLEIRSLRSDDTAVYFCAIFYYGRDTWGQGTTLTVSS VL: EIVMTQSPATLSVSPGERVTMSCKSSQSLLNSRSRKNYLAWYQQKPGQAPRLLIYWASTRESGVPARFSGSGSGTEFTLTISSVQSEDFAVYYCKQSYNLLSFGQGTVLEIKR	–	–	0.337	–	–	–	–	–	–
H3.C12, human IgG4 (antibody, V domains shown) VH: QVQLVQSGAEVKKPGASVKVSCKVSGYTLTEQSMHWVRQAPGKGLEWMGRINTETGEPTYAQKFQGRVTMTQDTSTDTAYMELSSLRSEDTAVYFCAIFYYGRDTWGQGTTVTVSS VL: EIVMTQSPATLSVSPGERVTMSCRSSQSLLHSRTRKNYLAWYQQKPGQAPRLLIYWASTRETGVPARFSGSGSGTEFTLTISSLQSEDFAVYYCKQSYNLLSFGQGTVLEIKR	0.25	0.25	–	–	–	–	–	–	–
HuC6D4 (format not stated) (antibody, V domains shown) VH: QIQLVQSGAEVKKPGASVKISCKASGYTFTDYSMHWVRQAPGQGLEWVARINTETGEPTFADDFRGRFTVTLDTSTSTAYLEIRSLRSDDTAVYFCAIFYYGRDTWGQGTTLTVSS VL: EIVMTQSPATLSVSPGERVTMSCKSSQSLLNSRSRKNYLAWYQQKPGQAPRLLIYWASTRESGVPARFSGSGSGTEFTLTISSVQSEDFAVYYCKQSYNLLSFGQGTVLEIKR	–	–	–	–	–	–	–	–	Kd [8]: 0.0821 nM
H4C8 RGD3, human IgG4 (antibody, V domains shown, also called H4C8 RGD3 IgG4) VH: QVQLVQSGAEVKKPGASVKVSCKVSGYTLTRQSMHWVRQAPGKGLEWMGRINTETGEPTYAQKFQGRVTMTQDTSTDTAYMELSSLRSEDTAVYFCAIFYYGRDTWGQGTTVTVSS VL: EIVMTQSPATLSVSPGERVTLSCKSSQSLLGRGDLGRLKKNALAWYQQKPGQAPRLLIYWASTRETGVPARFSGSGSGTEFTLTISSLQSEDFAVYYCKQSYNLLSFGQGTKVEIKR	–	–	–	0.03	0.02	no binding	no binding	no binding (tested: 2.5 µg/ml)	–
H4C8 RGD1, human IgG4 (antibody, V domains shown, also called H4C8 RGD1 IgG4) VH: QVQLVQSGAEVKKPGASVKVSCKVSGYTLTRQSMHWVRQAPGKGLEWMGRINTETGEPTYAQKFQGRVTMTQDTSTDTAYMELSSLRSEDTAVYFCAIFYYGRDTWGQGTTVTVSS VL: EIVMTQSPATLSVSPGERVTLSCKSSQSLLRRGDLATIHGNALAWYQQKPGQAPRLLIYWASTRETGVPARFSGSGSGTEFTLTISSLQSEDFAVYYCKQSYNLLSFGQGTKVEIKR	–	–	–	0.04	0.07	no binding	no binding	no binding (tested: 2.5 µg/ml)	–
H3C8 RGD3, human IgG4 (VL Fr4 K108/V109, human) (antibody, V domains shown, also called H3C8 RGD3 VL Fr4 K108/V109 (human) IgG4) VH: QVQLVQSGAEVKKPGASVKVSCKVSGYTLTEQSMHWVRQAPGKGLEWMGRINTETGEPTYAQKFQGRVTMTQDTSTDTAYMELSSLRSEDTAVYFCAIFYYGRDTWGQGTTVTVSS VL: EIVMTQSPATLSVSPGERVTLSCKSSQSLLGRGDLGRLKKNALAWYQQKPGQAPRLLIYWASTRETGVPARFSGSGSGTEFTLTISSLQSEDFAVYYCKQSYNLLSFGQGTKVEIKR	–	–	–	0.07	0.84	–	–	no binding (tested: 2.5 µg/ml)	binding result [10]: no binding; binding result [11]: no binding

Source: patent US20260139057A1 (University of California, published 2026)
